# Results from patent US7057012 (dated 2006).
# Target: human PTH-2 receptor (human, UniProt P49190 25-550)
# Assay: competition binding vs 125I-rPTH(1-34), COS-7 cells
# human PTH-2 receptor, sequence (P49190 25-550): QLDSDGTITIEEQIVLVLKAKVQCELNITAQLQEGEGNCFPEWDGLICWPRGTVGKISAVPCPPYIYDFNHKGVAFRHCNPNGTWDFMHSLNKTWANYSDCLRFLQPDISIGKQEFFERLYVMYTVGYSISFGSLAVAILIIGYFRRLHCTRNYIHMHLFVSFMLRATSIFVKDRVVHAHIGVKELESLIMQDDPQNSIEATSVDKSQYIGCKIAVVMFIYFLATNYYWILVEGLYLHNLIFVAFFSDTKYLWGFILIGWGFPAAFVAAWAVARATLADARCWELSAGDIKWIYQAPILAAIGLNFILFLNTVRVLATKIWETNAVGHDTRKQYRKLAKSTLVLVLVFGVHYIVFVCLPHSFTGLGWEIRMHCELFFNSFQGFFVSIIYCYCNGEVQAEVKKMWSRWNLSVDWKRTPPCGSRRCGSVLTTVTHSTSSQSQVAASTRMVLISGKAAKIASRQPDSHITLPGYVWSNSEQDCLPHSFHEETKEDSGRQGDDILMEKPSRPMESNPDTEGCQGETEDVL
row,Binder,IC50 [nM]
1,SMERVEWLRKKLQDA [PTH(17-31) 31 Val→Ala],3800
2,SMERVEWLAKKLQDV [PTH(17-31) 25 Arg→Ala],3800
3,SMERVEWLRKKAQDV [PTH(17-31) 28 Leu→Ala],9900
4,AMERVEWLRKKLQDV [PTH(17-31) 17 Ser→Ala],1500
5,SMERVEALRKKLQDV [PTH(17-31) 23 Trp→Ala],> 100000
6,SMERVEWLRKKLQDV [PTH(17-31)],1000
7,SMERAEWLRKKLQDV [PTH(17-31) 21 Val→Ala],1700
8,SMERVEWLRKKLQAV [PTH(17-31) 30 Asp→Ala],1100
9,SMERVEWLRKKLADV [PTH(17-31) 29 Gln→Ala],900
10,SAERVEWLRKKLQDV [PTH(17-31) 18 Met→Ala],1500
11,SMERVEWARKKLQDV [PTH(17-31) 24 Leu→Ala],67500
12,SMEAVEWLRKKLQDV [PTH(17-31) 20 Arg→Ala],90500
13,SMERVAWLRKKLQDV [PTH(17-31) 22 Glu→Ala],600
14,SMERVEWLRAKLQDV [PTH(17-31) 26 Lys→Ala],8300
15,SMARVEWLRKKLQDV [PTH(17-31) 19 Glu→Ala],700
16,SMERVEWLRKALQDV [PTH(17-31) 27 Lys→Ala],1100
